The numbers were not newly measured in patent publication US7930157B2, “Computational method and apparatus for predicting polypeptide aggregation or solubility” (Cambridge University Technical Services Ltd., priority 2003, dated 2011), which cites them from elsewhere.

Like-named read-outs stand apart in the source and are kept apart here. Where no end group is shown, it is not given here.

For data set [1] the following is noted: experimental aggregation rate of mutant relative to wild type; growth phase only.
For data set [2] the following is noted: compared to the human calcitonin sequence.
The conditions of data set [3]: for hydrophobicity: neutral pH, based on partition coefficients from water to octanol.
The conditions of data set [4]: for charge: neutral pH.
The conditions of data set [5]: normalised from 0 (high β-sheet propensity) to 1 (low); glycine from theoretical calculations.
Setting [6] is: τ obtained using T1 (nucleation time).
Where [7] appears, read: τ obtained using T2 (half time of aggregation).
Setting [8] is: pH lower than 6.0, histidine positively charged.

As for “N22A: single-point mutation N22A of amylin (islet amyloid polypeptide), ref. 11 (KCNTATCATQRLANFLVHSSNAFGAILSSTNVGSNTY; ends and bridges not checked; cysteine pairing not given here; UniProt P10997 34-70, looked up, variant N22A)”, in data set [1], the “observed ln (νmut/νwt)” value was 0.69.

On to “SEQ ID NO 14: calcitonin sequence reported in Zurdo & Dobson (WO 02/083734), 6 modified positions when compared to the human sequence (CGNLSTCMLGKLTQELRKLHTFPQTAIGVGAP; ends and bridges not checked; cysteine pairing not given here)”, for which, in data set [2] (setting [6]), the “Observed (τmut/τwt)” value is 300 and the “observed ln (νmut/νwt)” value is recorded as −5.71. In addition, in data set [2] (setting [7]), the “Observed (τmut/τwt)” value is reported as 100 and the “observed ln (νmut/νwt)” value is given as −4.61.

For “L27A: single-point mutation L27A of amylin (islet amyloid polypeptide), ref. 11 (KCNTATCATQRLANFLVHSSNNFGAIASSTNVGSNTY; ends and bridges not checked; cysteine pairing not given here; UniProt P10997 34-70, looked up, variant L27A)”, the “observed ln (νmut/νwt)” value in data set [1] is on record as −0.93.

Take “S20G: single-point mutation S20G of amylin, ref. 12 (KCNTATCATQRLANFLVHSGNNFGAILSSTNVGSNTY; ends and bridges not checked; cysteine pairing not given here; UniProt P10997 34-70, looked up, variant S20G)”: in data set [1], the “observed ln (νmut/νwt)” value is 1.01.

Consider `N[C@@H](CCC(=O)O)C(=O)O` [Glu (E), Glu], for which, in data set [3], the hydrophobicity was 0.696 kcal/mol.

Consider “G24A: single-point mutation G24A of amylin (islet amyloid polypeptide), ref. 11 (KCNTATCATQRLANFLVHSSNNFAAILSSTNVGSNTY; ends and bridges not checked; cysteine pairing not given here; UniProt P10997 34-70, looked up, variant G24A)”, for which the “observed ln (νmut/νwt)” value in data set [1] is recorded as −0.03.

For “F23A: single-point mutation F23A of amylin (islet amyloid polypeptide), ref. 11 (KCNTATCATQRLANFLVHSSNNAGAILSSTNVGSNTY; ends and bridges not checked; cysteine pairing not given here; UniProt P10997 34-70, looked up, variant F23A)”, the “observed ln (νmut/νwt)” value in data set [1] is recorded as −2.65.

Turning to “I26A: single-point mutation I26A of amylin (islet amyloid polypeptide), ref. 11 (KCNTATCATQRLANFLVHSSNNFGAALSSTNVGSNTY; ends and bridges not checked; cysteine pairing not given here; UniProt P10997 34-70, looked up, variant I26A)”, in data set [1], the “observed ln (νmut/νwt)” value was −2.39.

As for `N[C@@H](Cc1c[nH]cn1)C(=O)O` [His (H), His], in data set [3] (setting [8]), the “hydrophobicity (value in brackets)” value is 0.686 kcal/mol. Besides, the “charge (value in brackets)” value in data set [4] (setting [8]) was “+1”.

Take `NCCCC[C@H](N)C(=O)O` [Lys (K), Lys]: the hydrophobicity in data set [3] was 0.662 kcal/mol. Besides, the β-sheet propensity in data set [5] is on record as 0.34. The charge result in data set [4] is “+1”.

As to `N[C@@H](Cc1c[nH]c2ccccc12)C(=O)O` [Trp (W), Trp], the hydrophobicity in data set [3] was -0.509 kcal/mol. Also, the β-sheet propensity in data set [5] is given as 0.24. Further, the charge in data set [4] is on record as 0.
